Source: patent US20120014911A1 (published 2012)

Molecular target: T1, endogenous PKD1 from 293T cells (human, UniProt Q15139 1-912)
T1 construct: also called PKD1/PKCµ
T1 sequence (looked up): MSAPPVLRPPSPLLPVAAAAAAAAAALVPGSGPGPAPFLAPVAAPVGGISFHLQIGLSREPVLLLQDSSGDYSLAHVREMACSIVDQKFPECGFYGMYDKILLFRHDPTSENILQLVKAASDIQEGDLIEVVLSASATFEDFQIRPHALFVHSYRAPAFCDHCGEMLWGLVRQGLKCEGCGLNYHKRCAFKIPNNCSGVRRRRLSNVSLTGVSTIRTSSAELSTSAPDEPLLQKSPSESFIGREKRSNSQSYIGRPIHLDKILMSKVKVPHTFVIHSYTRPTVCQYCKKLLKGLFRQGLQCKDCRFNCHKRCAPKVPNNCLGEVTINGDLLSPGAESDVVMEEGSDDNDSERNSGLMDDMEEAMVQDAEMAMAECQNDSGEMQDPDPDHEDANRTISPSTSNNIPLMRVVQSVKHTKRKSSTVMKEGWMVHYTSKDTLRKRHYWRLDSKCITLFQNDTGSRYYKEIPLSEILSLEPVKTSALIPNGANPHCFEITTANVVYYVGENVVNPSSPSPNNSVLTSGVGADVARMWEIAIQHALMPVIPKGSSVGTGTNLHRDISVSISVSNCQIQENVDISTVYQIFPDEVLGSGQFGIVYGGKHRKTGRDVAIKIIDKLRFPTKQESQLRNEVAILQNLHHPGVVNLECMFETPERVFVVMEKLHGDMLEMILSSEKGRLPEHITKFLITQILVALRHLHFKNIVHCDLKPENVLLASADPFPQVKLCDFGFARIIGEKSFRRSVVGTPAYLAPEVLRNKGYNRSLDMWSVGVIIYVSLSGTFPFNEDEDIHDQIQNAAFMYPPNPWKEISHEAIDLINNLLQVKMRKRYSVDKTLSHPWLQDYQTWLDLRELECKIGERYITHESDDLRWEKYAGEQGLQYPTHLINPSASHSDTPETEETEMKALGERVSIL
Assay: co-immunoprecipitation of endogenous proteins from 293T cell lysates, untreated or treated with IFN-α

B1: endogenous IFNAR1 from 293T cells (receptor, human, UniProt P17181 28-557, looked up)
chain: KNLKSPQKVEVDIIDDNFILRWNRSDESVGNVTFSFDYQKTGMDNWIKLSGCQNITSTKCNFSSLKLNVYEEIKLRIRAEKENTSSWYEVDSFTPFRKAQIGPPEVHLEAEDKAIVIHISPGTKDSVMWALDGLSFTYSLVIWKNSSGVEERIENIYSRHKIYKLSPETTYCLKVKAALLTSWKIGVYSPVHCIKTTVENELPPPENIEVSVQNQNYVLKWDYTYANMTFQVQWLHAFLKRNPGNHLYKWKQIPDCENVKTTQCVFPQNVFQKGIYLLRVQASDGNNTSFWSEEIKFDTEIQAFLLPPVFNIRSLSDSFHIYIGAPKQSGNTPVIQDYPLIYEIIFWENTSNAERKIIEKKTDVTVPNLKPLTVYCVKARAHTMDEKLNKSSVFSDAVCEKTKPGNTSKIWLIVGICIALFALPFVIYAAKVFLRCINYVFFPSLKPSSSIDEYFSEQPLKNLLLSTSEEQIEKCFIIENISTIATVEETNQTDEDHKKYSSQTSQDSGNYSNEDESESKTSEELQQDFV
notes: also called the receptor
Q: Does B1 bind?
A: no binding
